In publication PMC9481538, “The interaction between LC8 and LCA5 reveals a novel oligomerization function of LC8 in the ciliary-centrosome system” (Scientific Reports, 2022):

Experiments:
[1] = target: T1, LC8 (Homo sapiens, UniProt Q96FJ2); test: isothermal titration calorimetry, sLCA5 fragments titrated with LC8; assay type: binding; conditions: PBS pH 7.4, 1 mM TCEP, 37 °C, titrated with LC8, result in words
T1 construct: 6xHis (N); made in house; host or cells: E. coli BL21 (DE3) Rosetta
Protocol: LC8 and MBP-fused LCA5 constructs were prepared in PBS supplemented with 1 mM TCEP. Before measurement, protein samples were dialyzed overnight in PBS pH 7.4 (Orange Scientific, OrDial D14 membrane). Peptides were diluted from stock with the buffer used for dialysis. The concentration of samples was determined based on absorbance at 280 nm in the case of proteins, and 205 nm for the peptide. Experiments were performed using MicroCal PEAQ-ITC (Malvern Panalytical), LCA5 peptides were measured at 25 °C, proteins were analyzed at 37 °C. Lebercilin peptide was injected into the cell 18 times 2 μl volumes, with 5 min timing between injections. In case of the protein, LCA5 was placed in the sample cell, and LC8 was injected during 37 injections, 1 μl each. The results were evaluated using MicroCal PEAQ-ITC Analysis Software.

[2] = target: T1, LC8; test: SDS-PAGE densitometric analysis of gel filtration fractions (sLCA5:LC8 molar ratio); assay type: binding; conditions: SDS-PAGE densitometry; result in words
Protocol: For analytical gel filtration a Superose 6 Increase 10/300 (Cytiva) was used with an effective resolution between 5–5000 kDa range and a void volume above 5000 kDa. The column was equilibrated in DPBS supplemented with 200 μM TCEP. The calibration curve was fitted on the chromatogram of gel filtration standard mix (BioRad) with the addition of Dextran Blue to determine the void volume. 100 μl of LCA5 purified protein or LCA5-LC8 complex was injected at the concentration of 30 μM for LCA5 and 150 μM for LC8, with a flow rate of 500 μl/min immediately or after 60 min of incubation at 37 °C. For densitometric analysis, fractions were collected and 200 μl of samples were precipitated in 1.8 ml 96% ethanol at − 80 °C for 2 h. The samples were centrifugated for 30 min at 14,000 g, and dissolved in 15 μl of SDS sample buffer. 10 μl of each sample was run on Tricine-SDS gel. The calibration of the densitometry was performed on samples of known molar ratio of sLCA5 construct and LC8 (see the original gel used for calibration on Suplementary Fig. S16). Data evaluation was performed by using Origin 8 software and Fiji ImageJ software.

[3] = test system: GST-fused LC8; test: GST pull-down of LC8 and sLCA5; assay type: binding; conditions: GST-LC8 bait, MBP-, 6x-His-fused sLCA5 prey, PBS, 1 mM DTT, room temperature; result in words
Protocol: For the pull-down experiments, GST-fused LC8 was used as bait, and MBP-, 6x-His-fused LCA5 variants as prey. For controls, GST and MBP were used. Proteins were expressed in 100 ml cultures of E. coli BL21 (DE3) Rosetta cells as described above. Cells were harvested, resuspended in 5 ml PBS supplemented with 1 mg/ml lysozyme and 1 mM DTT, sonicated and clarified by centrifugation. 20 μl of Glutathione Sepharose 4B (Macherey–Nagel) (75%) resin was used for each experiment. Baits were incubated with the resin for 1 h at room temperature, then washed with PBS supplemented with 1 mM DTT. Prey proteins were added and incubated for one hour. The beads were washed and eluted by boiling in a 2 × SDS sample buffer and analyzed in tricine SDS page according to the protocol of Schagger et al[43].

[4] = CD thermal denaturation; assay type: physicochemical; conditions: CD at 222 nm, 10–80 °C
Protocol: CD experiments were carried out on a Jasco J-810 spectropolarimeter using a 1 mm quartz cuvette. For the spectra of the individual constructs, 8 scans were recorded and averaged between 200 nm or 190 nm and 260 nm (in continuous scanning mode, data pitch: 0.2 nm, scanning speed: 50 nm/min, response: 2 s, bandwidth: 2 nm). sLCA5-WT and the mutants were measured at 0.1 mg/ml concentration. 1.2 μM LCA5 and 6 μM LC8 were complexed and analyzed. The spectra of LC8 at a concentration of 6 μM was recorded under the same experimental conditions as described before and subtracted from the individual CD spectra of the sLCA5-LC8 complexes. The baseline subtracted data were evaluated using the BeStSel web-server (http://bestsel.elte.hu/index.php)[46],[47]. Thermal denaturation experiments were recorded at 222 nm between 10 and 80 °C using 1 °C/min heating rate. The thermal denaturation profile was fitted according to the Gibbs–Helmholtz equation assuming a two-state model as described by Shih et al[48]. After fitting, the curves were normalized by the following equation. y=-m^∘-An-T∗mn/Ad-An+md-mnT-1 where y is the ratio of native and unfolded state, An and Ad are the initial values of the Gibbs–Helmholtz equation belong to the native and denatured state, mn and md are the slopes belong to the An and Ad values, m° is the measured CD value in millidegree and T is the temperature in °C.

T1 sequence (Q96FJ2 whole entry, the tested form may be a part): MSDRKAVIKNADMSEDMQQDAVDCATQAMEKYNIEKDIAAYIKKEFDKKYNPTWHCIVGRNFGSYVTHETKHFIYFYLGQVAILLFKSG

B1: sLCA5-ΔCQS-ΔVQT: double mutant sLCA5, both LC8 binding motifs mutated (protein)
chain: DTDLVTKRILSARLLKINELQNEVSELQVKLAELLKENKSLKRLQYRQEKALNKFEDAENEISQLIFRHNNEITALKERLRKSQEKERATEKRVKDTESELFRTKFSLQKLKEISEARHLPERDDLAKKLVSAELKLDDTERRIKELSKNLELSTNSFQRQLLAERKRAYEAHDENKVLQKEVQRLYHKLKEKERELDIKNIYSNRLPKSSPNKEKELALRKNAAAAADFADLCTKGAAAMEDFKPEEYPLTPETIMCYENKWEEPGHLTLDLQSQKQDRHGEAGILNPIMEREEKFVTDEELHVVKQEVEKLEDEWEREELDKKQKEKASLLER
modifications: left off: MBP, N-terminal, kept | His6, C-terminal, kept
[1]
  measurable interaction with LC8 (ITC): did not show any measurable interaction
[2]
  LC8 content of fraction: unable to bind LC8
[3]
  interaction with LC8 (GST pull-down): abolished the interaction with LC8
[4]; 1 °C/min, two-state fit, without or with LC8 as label shows
  melting temperature Tm: 40,7 °C
[4]; sLCA5 in complex with LC8 vs without
  increase in melting temperature on LC8 binding: no similar increase was observed
